Laboratory results reported in patent US20210163601A1 (Amgen, published 2021).

Each binder was assayed against T1, Soluble ASGR-1 (recombinant, biotinylated) (human, UniProt P07306 62-291, limits assumed, biotinylated) (assay: limiting antigen bead FACS; biotinylated soluble ASGR-1 coated at 2.5 ng/mL on LumAvidin beads;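 also: hybridoma supernatants of ligand-competing antibodies bound to antigen-loaded beads, read by flow cytometry on an iQue Screener in calcium-containing buffer, higher fluorescence meaning stronger relative affinity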).
T1 construct: also called recombinant, soluble ASGR-1 biotinylated protein
T1 sequence: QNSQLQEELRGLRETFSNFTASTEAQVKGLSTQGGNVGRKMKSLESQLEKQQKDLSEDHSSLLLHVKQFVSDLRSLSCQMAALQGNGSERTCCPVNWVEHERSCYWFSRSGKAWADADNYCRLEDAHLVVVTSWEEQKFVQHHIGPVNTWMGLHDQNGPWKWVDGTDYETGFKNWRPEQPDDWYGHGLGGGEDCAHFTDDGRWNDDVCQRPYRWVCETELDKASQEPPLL

Binder | FACS Geomean
4B1 (antibody, V domains shown, Tested as hybridoma supernatant) VH: QVQLQESGPGLVKPSETLSLTCSVSGDSISSYSWSWIRQPAGKGLEWIGRIYTSGSTNYIPSLKSRITMSVDTSKKQFSLKLSSVTAADTAVYYCARDLKSSGCLFFDYWGQGTLVTVSS VL: DIQMTQSPSSLSASVGDRVTITCRASHTIRTYLNWYQQKPGKAPKLLIYAASSLQSGVPSRINGSGSGTDFTLTITNLQPEDFATYYCQQSYNISFTFGPGTKVDIK | 10100
7G4 (antibody, V domains shown, Tested as hybridoma supernatant) VH: QVQLVESGGGVVQPGRSLRLSCAASGFTFNNYVMHWVRQAPGKGLEWVAVIWYDGSNKYYADSVKGRFTISRDNSKNTLYLQMTSLRAEDTAVYYCAREKYSSNWYDYGMDVWGQGTTVTVSS VL: DIQMTQSPSSLSASVGDRVTITCRASQGIRNDLGWYQQRPGKAPKRLIYAASSLQSGVPSRFSGSGSGTEFTLTISSLQPEDSATYYCLHQYSYPRTFGQGTKVEIK | 6800
7F4 (antibody, V domains shown, Tested as hybridoma supernatant) VH: QLQLQESGPGLVKPSETLSLTCTVSGGSISRSSYYWGWIRQPPGKGLEWIGNIYYSGATYYNPSLKSRVTISVDTSTNQFSLKLSSVTAADTAVYYCARHSGSWSLDYWGQGTLVTVSS VL: DIQMTQSPSSLSASVGDRVTITCRTSQGIRNDLGWYQQKPGKAPKRLIYAASNLQSGVPSRFSGSGSGTEFTLTISSLQPEDFATYYCLQHSAYPLTFGGGTKVEIK | 4910
193E7 (antibody, V domains shown, Tested as hybridoma supernatant) VH: QVQLQQWGAGLLKPSETLSLTCAVYGGSFSGYFWTWIRQPPGKGLEWIGEINHSGSTNYNPSLKSRVTISVDTSKNQFSLKLSSVTAADTAVYYCARDYGADYWGQGTLVAVSA VL: DIQMTQSPSSLSASVGDRVTITCRASQGIRNDLGWYQQKPGKAPKRLIYSASSLQRGVPSRFSGSGSGTEFTLTISSLQPEDFATYYCLQHKRYPLTFGGGTKVEIK | 18300
5E5 (antibody, V domains shown, Tested as hybridoma supernatant) VH: QVQLVESGGGVVQPGRSLRLSCAASGFTFSNYVMHWVRQAPGKGLEWVAVIWYDGSNKYYADSVKGRFTISRDNSKNTLYLQMNSLRAEDTAVYYCTREVYSSGWYDYGMDVWGQGTTVTVSS VL: DIQMTQSPSSLSASVGDRVTITCRASQGIRNDLGWYQQKPGKAPKRLIYAASSLQSGVPSRFSGSGSGTEFTLTISSLQPEDFATYYCLQHYSYPRTFGQGTKVEVK | 3280
54E9 (antibody, V domains shown, Tested as hybridoma supernatant) VH: QVQLVQSGAEVKKPGASVKVSCKASGYTFNSYGISWVRLAPGQGLEWMGWISAYNGNTKNAQKLQGRVTMTTDTSTSTAYMELRSLRSDDTAVYYCARHDFWSGYYKGMDVWGQGTTVTVSS VL: not shown | 6490
4H6 (antibody, V domains shown, Tested as hybridoma supernatant) VH: QVQLVQSGAEVKKPGASVKVSCKASGYTFTDYYLHWVRQAPGQGLEWMGWIHPNSGGTNYAQKFQGRVTMTRDTSISTAYMGLSSLRSDDTAVYYCARDGTSSFDYWGQGTLVTVSS VL: DIQMTQSPSSVSASVGDRVTITCRASQGISRWLAWYQQKPGKAPKLLIYGASSLQSGVPSRFSGSGSGTDFTLTISSLQPEDFAIYYCQQANSFPFTFGPGTKVDIK | 2990
72G9 (antibody, V domains shown, Tested as hybridoma supernatant) VH: EVQLVESGGGLVKPGGSLRLSCAASGFTFSSYSMNWVRQAPGKGLEWVSSISGSSSYIYYADSVKGRFTISRDNAKNSLYLQMNSLRAEDTAVYFCARGGSRGFDPWGQGTLVTVSS VL: DIQMTQSPSSLSASVGDRVTITCRASQSITSYLNWYQQKPGKAPKLLIYTASSLQSGVPSRFSGSGSGTDFTLTISSLQPEDFATYYCQQSHSFPFTFGPGTKVDIK | 34000
56E5 (antibody, V domains shown, Tested as hybridoma supernatant) VH: QVQLVQSGAEVKKPGASVKVSCQASGYTFTGYHMHWVRQAPGQGLEWMGWINPNNNATNYAQKFQGRVTMTRDTSISTAYMELRRLRSDDTAVYHCARDGTSSFDYWGQGTLVTVSS VL: DIQMTQSPSSVSASVGDRVTITCRASQGIRKWLAWYQQKPGKAPKLLIYAASSLQSGVPSRFSGSGSGTDFTLTISSLQPEDFATYYCQQANSFPFTFGPGTKVDIK | 22600
194C10 (antibody, V domains shown, Tested as hybridoma supernatant) VH: QVQLQQWGAGLLKPSETLSLTCAVSGGSFRYYYWSWIRQPPGKGLEWFGEINHSGSTNYNPSLKSRVTISIDTSKNQFSLKLRSVTAADTAVYYCARDYGAFDIWGQGTMVTVSS VL: EIVLTQSPGTLSLSPGERATLSCRASPSVNSGYLAWYQQKPGQTPRLLIFGASSRATGIPDRFSASGSGADFTLTISRLEPEDFAVYFCQQYESSPWTFGQGTKVEIK | 21900
6G7 (antibody, V domains shown, Tested as hybridoma supernatant) VH: QVQLVESGGGVVQPGRSLRLSCAASGFTFSSYGMHWVRQTPGKGLEWVAIISYVGKNKYYADSVKGRFTISRDNSKNTLYLQMNSLRAEDTAVYYCARRGNSYGGYGMDVWGQGTTVTVSS VL: DIQMTQSPSSRSASVGDRVTITCQASQDISNYLNWCQQKPGKALKLLIYDASTLETGVPSRFSGSGSGTDFTFTISSVQPEDIATYYCQQYDNVPITFGQGTRLEIK | 2290
218G4 (antibody, V domains shown, Tested as hybridoma supernatant) VH: QVQLVESGGGVVQPGRSLRLSCAASGFTFSSYGLHWVRQAPGKGLEWVAVIWYDGSNKYYADSVKGRFTISRDNSKNTLYLQMNSLRVEDTAVYYCANWYYYYYGMDVWGQGTTVTVSS VL: QSVLTQPPSVSAAPGQKVTISCSGSSSNIGNNYVSWYQQLPGTAPKLLLYDSNKRPSGIPARFSGSKSGTSATLGITGLQTGDEADYYCGTWDSSLNTVVFGGGTKLTVL | 15100
198D2 (antibody, V domains shown, Tested as hybridoma supernatant) VH: QVQLVESGGGVVQPGRSLRLSCAASGFTFRSYGMHWVRQAPGKGLEWVAVIIYDGSYKYYADSVKGRFTISRDNSKNTLYLQMNSLRAEDTAVYYCARTYSGGMDVWGQGTTVTVSS VL: QSVLTQPPSVSAAPGQKVTISCSGSSSNIGSNYVSWYQQLPGTAPKVLIYDNNKRPSGIPDRFSGSKSGTSATLGITGLQTGDEADYYCGTWDSRLNVGVFGGGTKLTVL | 1870
75G3 (antibody, V domains shown, Tested as hybridoma supernatant) VH: QVQLQQWGAGLLKPSETLSLTCAVYGGSLSGSYWSWIRQPPGKGLEWIGEINLSGSTNYNPSLKSRVTISVDTSKSQFSLTLRSVTAADTAVYYCARDYGGLDYWGQGTLVTVSS VL: EIVLTQSPGTLSLSPGERATLSCRARQNVDSSYLAWYQQKPGQAPRLLIYGASSRATGIPDRFSGSGSGTDFTLTISRLEPEDFAVFYCQQYERSPWTFGQGTKVEIK | 35800
176H4 (antibody, V domains shown, Tested as hybridoma supernatant) VH: QVQLVESGGGVVQPGRSLRLSCAASGFTFSSYGMHWVRQAPGKGLEWVAIIWYDGSYKYYADSVKGRFTISRDNSKNTLYLQMSSLRAEDTAVYYCARDAHDFWSGYFAYWGQGALVTVSS VL: DIVMTQTPLSLSVTPGQPASISCKSSQSLLHGDGKTYLYWYLQKPGQPPQLLIYEVSNRFSGVPDRFSGSGSGTDFTLKISRVEAEDVGIYYCMQSIQIPWTFGQGTRVEIK | 29400
4A2 (antibody, V domains shown, Tested as hybridoma supernatant) VH: QVQLVQSGTEVKKPGASVKVSCKASGYTFTNYDINWVRQATGQGLEWMGWMHPNSGNTGYAQKFQGRVTLTRNTSISTAYMELSSLRSEDTAVYYCASSSGWYYFDYWGQGTLVTVSS VL: DIVMTQSPDSLAVSLGERATINCKSSQSILHSSNNNNYLAWFQQKPGQPPKLLLYWASTRESGVPDRFSGSGSGTDFTLTISSLQPEDVAVYYCQQYYNTPVTFGPGTKVGIK | 16600
202A3 (antibody, V domains shown, Tested as hybridoma supernatant) VH: QVQLEQSGAEVKKPGASVKVSCKASGYTFTSYDINWVRQATGQGLEWLGWMNPKRGNTGYAQKFQGRVTMTRNTSISTAHMELSSLRSEDTAVYYCARGRYSREDYYYYYDMDVWGQGTTVTVSS VL: DIQMSQSPSSLSASVGDRVTITCRASQGIRNDLGWYQQKPGKAPKRLICAASRLQSGVPSRFSGSGSGTEFTLTISSLQPEDFAIYYCLQHHDYPFTFGPGTKVDIK | 2150
190F8 (antibody, V domains shown, Tested as hybridoma supernatant) VH: QVQLVESGGGVVQPGRSLRLSCAASGFTFSTYGMHWVRQAPGKGLEWVAVIWYDGSNKNYADSVKGRFTISRDNSKNTLYLQMNSLRAEDTAVYYCARDQGVGYDGLDVWGQGTTVTVSS VL: DIQMTQSPSSLSASVGDRVTITCRTSQGIGNYLAWFQQKPGKAPKSLLYKASSLQSGVPSKFSGSGSGTDFTLTISSLQPEDFATYYCQQYMTYPLTFGGGTKVEIK | 13900
198G3 (antibody, V domains shown, Tested as hybridoma supernatant) VH: QVQLVESGGGVVQPGRSLKLSCAASGFTFSTYGMHWVRQAPGKGLEWVAVIWYDGTNKNYADSVKGRFTISRDNSKNTLCLQMNSLRAEDTAVYYCARDQGVGYDGLDVWGQGTTVTVSS VL: DIQMAQSPSSLSASVGDRVTITCRTSQGIGKYLAWFQQKPGKAPKSLLYKASSLQGGVPSKFSGSGSGTDFTLTISSLQPEDFATYYCQQYMTYPLTFGGGTKVEIK | 26000
191G10 (antibody, V domains shown, Tested as hybridoma supernatant) VH: QVQLVESGGGVVQPGRSLRLSCAASGFTFSSYGMHWVRQAPGKGLEWVAVIWYDGSNKNYADSVKGRFTISRDNSKNTLYLQMNSLRAEDTAVYYCARDQGVGYDGLDVWGQGTTVTVSS VL: DIQMTQSPSSLSASVGDRVTITCRTSQGIGKYLAWFQQKPGKAPKSLLYKVSSLQSGVPSKFSGSGSGTDFTLTISSLQPEDFATYYCQQYMTYPLTFGGGTKVEIK | 24200
191G1 (antibody, V domains shown, Tested as hybridoma supernatant) VH: QVQLVESGGGVVQPGRSLRLSCAASGFTFSSYGMHWVRQAPGKGLEWVAVIWYDGSNEHYADSVKGRFTISRDNSKNTLYLQMNSLRAEDTAVYYCARDRGVGYYGLDVWGQGTTVTVSS VL: DIQMTQSPSSLSASVGDRVTITCRASQGISNYLAWFQQKPGKAPKSLIYAASSLQSGVPSKFSGSGSGTDFTLTISSLQPEDFATYYCQHYLTYPLTFGGGTKVEIK | 9550
12D2 (antibody, V domains shown, Tested as hybridoma supernatant) VH: EVQLVESGGGLVKPGGSLRLSCAASGFTFSSYSMNWVRQAPGKGLEWVSSISSSSSYIYYADSVKGRFTISRDNAKNSLYLQMNSLRAEDTAVYYCARLGDYWGQGTLVAVSS VL: not shown | 105
